Each block holds one binder with its values, some of them ahead of it.
Key:
[1] = molecular target: human serum albumin (human) (UniProt P02768); test: SPR (Biacore), ratio of off rates at pH 7 and pH 5
[2] = molecular target: human serum albumin (human) (UniProt P02768); test: SPR (Biacore T100), serum albumin immobilized on CM5 chip, running buffer pH 5, 25 C
[3] = molecular target: human serum albumin (human) (UniProt P02768); test: SPR (Biacore T100), serum albumin immobilized on CM5 chip, running buffer pH 7, 25 C

- Ratio pH 7/pH 5 [1]: 3.54
- koff [2]: 0.0227 s⁻¹
- koff [3]: 0.00642 s⁻¹
B1: Nanobody 4A2 (VHH, from a related filing)
VHH: EVQLVESGGGLVQAGGSLRLSCAASGLSFSSYAMGWFRQAPGKEREFVAAIRRREGNSYYADSVKGRFTISRDSAKNTVYLQMNSLKPEDTALYSCAATAPHYSGSFAYAGGYDYWGQGTQVTVSS

- Ratio pH 7/pH 5 [1]: 2.42
- koff [2]: 0.0137 s⁻¹
- koff [3]: 0.00565 s⁻¹
B2: Nanobody 4D3 (VHH, from a related filing)
VHH: EVQLVKSGGGLVQPGGSLRLSCAASGFTFSHYQMSWVRQAPGKDVEWVSSISMLGGGTTYADSVKGRFTISRDNAKSTLVLQMNNLKVEDTAVYYCARGFSGNYYRADLGQGTQVTVSS

From US20090074770A1
